Measured values taken from patent publication US20240226314A1 (Sanofi, published 2024).
Like-named read-outs stand apart in the source and are kept apart here.

B1: 531v25 Fab (Fab, V domains shown)
VH: QVQLVQSGAEVKKPGASVKVSCKASGYTFTRYYLNWVRQAPGQGLEWIGMIDPSVSETHYAQKFQGRATLTVDKSTSTAYMELSSLRSEDTAVYYCSQIRLPYYYAMDSWGQGTTVTVSS
VL: DIQMTQSPSSLSASVGDRVTITCRASQDISSFLNWYQQKPGKAPKLLIYYTSRLQSGVPSRFSGSGSGTDYTLTISSLQPEDFATYYCQQGNTLPRTFGGGTKVEIKR
notes: The His-tag was removed with TEV protease before SPR
B2: cTfR expressed on 300.19 cells (SEQ ID NO: 2) (receptor)
chain: MMDQARSAFSNLFGGEPLSYTRFSLARQVDGDNSHVEMKLGVDEEENTDNNTKANGTKPKRCGGNICYGTIAVIIFFLIGFMIGYLGYCKGVEPKTECERLAGTESPAREEPEEDFPAAPRLYWDDLKRKLSEKLDTTDFTSTIKLLNENLYVPREAGSQKDENLALYIENQFREFKLSKVWRDQHFVKIQVKDSAQNSVIIVDKNGGLVYLVENPGGYVAYSKAATVTGKLVHANFGTKKDFEDLDSPVNGSIVIVRAGKITFAEKVANAESLNAIGVLIYMDQTKFPIVKADLSFFGHAHLGTGDPYTPGFPSFNHTQFPPSQSSGLPNIPVQTISRAAAEKLFGNMEGDCPSDWKTDSTCKMVTSENKSVKLTVSNVLKETKILNIFGVIKGFVEPDHYVVVGAQRDAWGPGAAKSSVGTALLLKLAQMFSDMVLKDGFQPSRSIIFASWSAGDFGSVGATEWLEGYLSSLHLKAFTYINLDKAVLGTSNFKVSASPLLYTLIEKTMQDVKHPVTGRSLYQDSNWASKVEKLTLDNAAFPFLAYSGIPAVSFCFCEDTDYPYLGTTMDTYKELVERIPELNKVARAAAEVAGQFVIKLTHDTELNLDYERYNSQLLLFLRDLNQYRADVKEMGLSLQWLYSARGDFFRATSRLTTDFRNAEKRDKFVMKKLNDRVMRVEYYFLSPYVSPKESPFRHVFWGSGSHTLSALLESLKLRRQNNSAFNETLFRNQLALATWTIQGAANALSGDVWDIDNEF
notes: Murine pre-B cell line 300.19, stably transfected with a plasmid expressing cTfR; also called cynomolgus TfR; cTfR-expressing 300.19 cells
B3: His-tagged cynomolgus monkey TfR ectodomain (cyTFRC_89_760; mature protein) (receptor)
chain: CKGVEPKTECERLAGTESPAREEPEEDFPAAPRLYWDDLKRKLSEKLDTTDFTSTIKLLNENLYVPREAGSQKDENLALYIENQFREFKLSKVWRDQHFVKIQVKDSAQNSVIIVDKNGGLVYLVENPGGYVAYSKAATVTGKLVHANFGTKKDFEDLDSPVNGSIVIVRAGKITFAEKVANAESLNAIGVLIYMDQTKFPIVKADLSFFGHAHLGTGDPYTPGFPSFNHTQFPPSQSSGLPNIPVQTISRAAAEKLFGNMEGDCPSDWKTDSTCKMVTSENKSVKLTVSNVLKETKILNIFGVIKGFVEPDHYVVVGAQRDAWGPGAAKSSVGTALLLKLAQMFSDMVLKDGFQPSRSIIFASWSAGDFGSVGATEWLEGYLSSLHLKAFTYINLDKAVLGTSNFKVSASPLLYTLIEKTMQDVKHPVTGRSLYQDSNWASKVEKLTLDNAAFPFLAYSGIPAVSFCFCEDTDYPYLGTTMDTYKELVERIPELNKVARAAAEVAGQFVIKLTHDTELNLDYERYNSQLLLFLRDLNQYRADVKEMGLSLQWLYSARGDFFRATSRLTTDFRNAEKRDKFVMKKLNDRVMRVEYYFLSPYVSPKESPFRHVFWGSGSHTLSALLESLKLRRQNNSAFNETLFRNQLALATWTIQGAANALSGDVWDIDNEF
notes: also called cTfR; cTfR ectodomain

What was measured:
[1] = biological target: B3; assay: SPR; KD on cTfR against KD on hTfR
Protocol: (§1) Binding of the humanized Fab variants to human, cynomolgus and mouse TfR was assessed using SPR at pH 7.4. Experiments were run on a Bruker MASS-2 instrument with HBS-EP+ as running buffer and sample diluent (Cytiva Life Sciences, #BR100826). HCA sensor chips (Bruker, #1862614) were immobilized with anti-His antibody (His capture kit, Cytiva Life Sciences, #28995056) following manufacturer's instructions. About 10,000 RU of anti-His was obtained. His-tagged hTfR ectodomain (SEQ ID NO: 39), cTfR ectodomain (SEQ ID NO: 40) or mouse TfR ectodomain (SEQ ID NO: 41) (5 μg/ml) was captured for 1 min at 10 μL/min. Concentration series of the humanized Fab variants were then injected for 4 min at 30 μL/min over hTfR surfaces and dissociation was monitored for 5 min. Surface was regenerated with one 1 min pulse of 10 mM glycine-HCl at pH 1.5.

[2] = biological target: B3; assay: SPR; KD on cTfR against KD on hTfR
Protocol: as §1

[3] = biological target: His-tagged mouse TfR ectodomain (mTFRC_89_764; mature protein) (mouse, UniProt Q62351 89-763); assay: SPR, His-tagged mTfR ectodomain captured on anti-His
Sequence of His-tagged mouse TfR ectodomain (mTFRC_89_764; mature protein) (Q62351 other isoform, or with tags, fused parts or gaps): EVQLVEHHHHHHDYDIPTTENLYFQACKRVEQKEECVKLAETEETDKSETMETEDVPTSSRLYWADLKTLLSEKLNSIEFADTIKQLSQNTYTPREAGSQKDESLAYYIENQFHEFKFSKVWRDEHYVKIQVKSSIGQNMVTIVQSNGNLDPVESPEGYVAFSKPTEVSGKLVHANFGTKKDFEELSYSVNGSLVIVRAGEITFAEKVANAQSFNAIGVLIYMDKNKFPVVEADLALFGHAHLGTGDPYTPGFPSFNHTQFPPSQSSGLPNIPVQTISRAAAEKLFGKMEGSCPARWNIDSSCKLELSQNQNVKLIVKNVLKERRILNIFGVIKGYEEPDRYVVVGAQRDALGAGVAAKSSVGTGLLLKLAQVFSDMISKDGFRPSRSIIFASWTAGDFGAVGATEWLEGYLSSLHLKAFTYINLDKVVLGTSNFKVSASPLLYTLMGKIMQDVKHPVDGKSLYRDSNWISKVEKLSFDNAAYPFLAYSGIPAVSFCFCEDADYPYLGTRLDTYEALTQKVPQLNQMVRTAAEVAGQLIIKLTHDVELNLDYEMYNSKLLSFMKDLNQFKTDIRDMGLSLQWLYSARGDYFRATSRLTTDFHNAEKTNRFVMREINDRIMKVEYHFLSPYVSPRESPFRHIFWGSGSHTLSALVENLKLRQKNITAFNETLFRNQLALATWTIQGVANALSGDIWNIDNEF
Protocol: as §1

[4] = biological target: T1, His-tagged human TfR ectodomain (hTFRC_89-760_G142S; mature protein) (human, UniProt P02786 89-760); assay: SPR, His-tagged TfR ectodomain captured on anti-His, 1:1 fit
T1 construct: It carries the G142S haplotype; also called hTfR ectodomain
Protocol: as §1
Target sequence in this assay (P02786 89-760 G142S): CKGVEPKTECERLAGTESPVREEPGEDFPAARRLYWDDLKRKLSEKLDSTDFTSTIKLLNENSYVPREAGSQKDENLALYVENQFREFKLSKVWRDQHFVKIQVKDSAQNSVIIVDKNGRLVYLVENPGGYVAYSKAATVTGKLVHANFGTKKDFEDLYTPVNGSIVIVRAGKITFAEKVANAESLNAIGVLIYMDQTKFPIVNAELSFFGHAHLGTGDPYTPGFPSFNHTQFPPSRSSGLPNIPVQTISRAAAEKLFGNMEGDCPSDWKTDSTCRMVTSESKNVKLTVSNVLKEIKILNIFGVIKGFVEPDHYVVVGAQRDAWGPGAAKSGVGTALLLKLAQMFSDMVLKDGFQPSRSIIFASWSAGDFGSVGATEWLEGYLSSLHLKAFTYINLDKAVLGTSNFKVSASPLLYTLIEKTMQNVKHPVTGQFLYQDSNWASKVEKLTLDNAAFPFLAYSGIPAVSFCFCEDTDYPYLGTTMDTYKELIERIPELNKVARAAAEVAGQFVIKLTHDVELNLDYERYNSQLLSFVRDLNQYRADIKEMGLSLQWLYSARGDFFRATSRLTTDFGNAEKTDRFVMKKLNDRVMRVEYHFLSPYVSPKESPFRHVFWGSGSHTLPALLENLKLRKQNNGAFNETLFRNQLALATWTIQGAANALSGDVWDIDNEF

[5] = biological target: B3; assay: as above
Protocol: as §1

[6] = biological target: T1, His-tagged human TfR ectodomain …; assay: as above; remark: listed apart in the source
Protocol: as §1

[7] = biological target: B3; assay: as above
Protocol: as §1

[8] = biological target: T2, anti-TfR 531v25-Fab-FcOL-GAA; assay: flow cytometry on TfR-expressing 300.19 cells
T2 construct: Monovalent Fab-FcOL with GAA fused to the C-terminus of the Fc polypeptide
T2 sequence (chain, as listed by the source): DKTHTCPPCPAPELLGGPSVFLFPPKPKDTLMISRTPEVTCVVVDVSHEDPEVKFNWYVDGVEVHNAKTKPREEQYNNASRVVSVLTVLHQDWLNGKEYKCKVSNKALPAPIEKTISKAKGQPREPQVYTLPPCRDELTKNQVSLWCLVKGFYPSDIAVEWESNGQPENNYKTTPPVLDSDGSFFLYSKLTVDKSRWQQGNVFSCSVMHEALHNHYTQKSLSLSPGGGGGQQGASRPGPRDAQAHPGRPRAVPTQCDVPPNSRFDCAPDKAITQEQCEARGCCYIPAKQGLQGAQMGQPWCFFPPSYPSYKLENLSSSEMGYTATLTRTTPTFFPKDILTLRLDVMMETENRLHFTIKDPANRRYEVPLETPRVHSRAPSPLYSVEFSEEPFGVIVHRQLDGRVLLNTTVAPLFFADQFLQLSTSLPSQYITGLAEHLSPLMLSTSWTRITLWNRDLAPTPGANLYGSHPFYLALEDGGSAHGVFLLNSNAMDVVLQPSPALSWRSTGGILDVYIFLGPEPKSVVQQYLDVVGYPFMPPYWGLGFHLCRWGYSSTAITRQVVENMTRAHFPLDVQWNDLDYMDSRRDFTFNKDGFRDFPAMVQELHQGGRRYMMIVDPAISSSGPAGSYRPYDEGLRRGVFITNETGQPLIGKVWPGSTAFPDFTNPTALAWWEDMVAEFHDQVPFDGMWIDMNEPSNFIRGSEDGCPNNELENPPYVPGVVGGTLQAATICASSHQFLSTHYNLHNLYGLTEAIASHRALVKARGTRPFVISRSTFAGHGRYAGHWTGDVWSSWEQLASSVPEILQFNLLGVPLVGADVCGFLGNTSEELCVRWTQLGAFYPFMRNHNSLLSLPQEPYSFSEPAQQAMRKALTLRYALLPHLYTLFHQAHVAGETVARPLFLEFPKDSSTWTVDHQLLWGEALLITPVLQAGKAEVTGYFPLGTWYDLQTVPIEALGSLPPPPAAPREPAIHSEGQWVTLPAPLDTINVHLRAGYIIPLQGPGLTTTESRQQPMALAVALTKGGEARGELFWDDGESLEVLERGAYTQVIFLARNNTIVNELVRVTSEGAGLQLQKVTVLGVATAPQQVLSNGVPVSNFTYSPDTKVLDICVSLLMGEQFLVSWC

[9] = biological target: T3, anti-TfR 531v25-Fab-FcOL-LC-GAA (Homo sapiens (Human), UniProt P0DOX5 223-448 = IgG part); assay: flow cytometry on TfR-expressing 300.19 cells
T3 construct: Monovalent Fab-FcOL with GAA fused to the C-terminus of the light chain

[10] = biological target: T2, anti-TfR 531v25-Fab-FcOL-GAA; assay: SPR, His-tagged TfR ectodomain captured on anti-His, 1:1 fit
Protocol: as §1
(§2) Affinity by SPR was also measured for the 531v25-mAb-GAAx2 molecule (a GAA sequence fused to both HCs).

[11] = biological target: T3, anti-TfR 531v25-Fab-FcOL-LC-GAA; assay: as above
Protocol: as §1, §2

For B1, the “Cynomolgus/human KD ratio” value [1] was 12.5, the “Cynomolgus/human KD ratio” value [2] was 12.4 and the binding result [3] was “no binding”. It also gave a Kd [4] of 4.45 nM, a Kd [5] of 55.8 nM and a Kd [6] of 4.5 nM. It also gave a Kd [7] of 55.8 nM.

B2: binds [8]; binds [9].

In the case of B3, the Kd [10] is reported as 89 nM and the Kd [11] is reported as 154 nM.
